Common to all, as to assay: holdup assay
Common to all, as to set-up: key: below the threshold = too weak to quantify, mostly under pKd 3.1 to 4

The target in test [1] is T1, PDZD2_4, O15018.
T1 sequence (O15018 723-823, limits assumed, looked up): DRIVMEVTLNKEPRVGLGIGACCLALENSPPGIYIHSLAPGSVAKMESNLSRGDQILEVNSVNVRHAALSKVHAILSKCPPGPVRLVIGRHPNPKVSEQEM

Test [2] concerns the target MAGIX, Q9H6Y5.
Test [3] deals with T2, PTPN13_4, Q12923.
T2 sequence (Q12923 1783-1878, limits assumed, looked up): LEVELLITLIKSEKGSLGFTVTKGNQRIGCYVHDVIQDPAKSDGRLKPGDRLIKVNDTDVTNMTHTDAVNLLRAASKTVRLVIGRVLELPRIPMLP

In test [4] the target is T3, PDZD2_1, O15018.
T3 sequence (O15018 80-192, limits assumed, looked up): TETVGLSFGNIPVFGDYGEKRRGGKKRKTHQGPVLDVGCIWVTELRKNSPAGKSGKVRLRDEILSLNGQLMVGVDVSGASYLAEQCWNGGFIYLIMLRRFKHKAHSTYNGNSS

Test [5] has as its target T4, SNTB2, Q13425.
T4 sequence (Q13425 110-208, limits assumed, looked up): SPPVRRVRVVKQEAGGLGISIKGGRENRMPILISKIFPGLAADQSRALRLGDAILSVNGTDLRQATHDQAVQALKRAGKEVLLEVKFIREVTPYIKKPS

In test [6] the target is CARD14, Q9BXL6.
Sequence of CARD14, Q9BXL6 (Q9BXL6 558-663): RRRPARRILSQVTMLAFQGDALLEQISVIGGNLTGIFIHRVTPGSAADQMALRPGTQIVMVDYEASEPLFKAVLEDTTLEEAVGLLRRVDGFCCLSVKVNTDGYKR
In test [7] the target is T5, SIPA1L3, O60292.
T5 sequence (O60292 961-1052, limits assumed, looked up): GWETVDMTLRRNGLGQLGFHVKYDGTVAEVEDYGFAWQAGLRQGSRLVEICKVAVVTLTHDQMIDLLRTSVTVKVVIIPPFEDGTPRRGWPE

The target of test [8] is T6, PDZD4, Q76G19.
T6 sequence (Q76G19 125-224, limits assumed, looked up): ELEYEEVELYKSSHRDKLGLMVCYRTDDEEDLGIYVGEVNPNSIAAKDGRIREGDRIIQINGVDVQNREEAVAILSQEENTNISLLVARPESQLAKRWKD

The target in test [9] is T7, PDZD2_6, O15018.
T7 sequence (O15018 2745-2839, limits assumed, looked up): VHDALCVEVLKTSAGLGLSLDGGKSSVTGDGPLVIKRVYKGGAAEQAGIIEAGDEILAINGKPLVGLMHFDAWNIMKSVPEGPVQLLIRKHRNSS

Test [10] concerns the target T8, LNX2_4, Q8N448.
T8 sequence (Q8N448 595-690, limits assumed, looked up): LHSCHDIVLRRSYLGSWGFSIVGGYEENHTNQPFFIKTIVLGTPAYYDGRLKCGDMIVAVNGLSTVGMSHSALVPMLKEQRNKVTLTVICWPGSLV

The target in test [11] is PDLIM4, P50479.
Sequence of PDLIM4, P50479 (P50479 1-83): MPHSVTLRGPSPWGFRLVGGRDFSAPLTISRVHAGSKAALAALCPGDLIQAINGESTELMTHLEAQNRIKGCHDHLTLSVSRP
The target of test [12] is T9, SHROOM3, Q8TF72.
T9 sequence (Q8TF72 20-120, limits assumed, looked up): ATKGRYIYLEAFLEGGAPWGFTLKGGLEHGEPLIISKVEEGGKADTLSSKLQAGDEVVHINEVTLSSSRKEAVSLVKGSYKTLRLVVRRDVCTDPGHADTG

For test [13], the target named is NHERF4_3, Q86UT5.
Sequence of NHERF4_3, Q86UT5 (Q86UT5 325-412): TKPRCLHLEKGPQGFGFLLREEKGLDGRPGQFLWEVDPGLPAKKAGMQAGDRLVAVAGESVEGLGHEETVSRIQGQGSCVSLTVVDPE
The target in test [14] is LMO7, Q8WWI1.
Sequence of LMO7, Q8WWI1 (Q8WWI1 1037-1138): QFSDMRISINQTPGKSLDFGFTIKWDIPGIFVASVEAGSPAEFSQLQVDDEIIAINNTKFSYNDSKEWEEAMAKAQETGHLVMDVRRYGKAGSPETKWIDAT
The target in test [15] is T10, PTPN4, P29074.
T10 sequence (P29074 512-599, limits assumed, looked up): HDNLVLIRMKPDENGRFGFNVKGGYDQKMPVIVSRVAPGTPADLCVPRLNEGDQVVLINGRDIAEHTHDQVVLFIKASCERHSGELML

Test [16] deals with DVL2, O14641.
Sequence of DVL2, O14641 (O14641 260-359): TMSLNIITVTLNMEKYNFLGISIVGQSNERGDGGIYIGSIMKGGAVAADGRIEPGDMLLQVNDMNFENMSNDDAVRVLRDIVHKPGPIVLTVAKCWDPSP
The target of test [17] is T11, PDZRN3_2, Q9UPQ7.
T11 sequence (Q9UPQ7 414-513, limits assumed, looked up): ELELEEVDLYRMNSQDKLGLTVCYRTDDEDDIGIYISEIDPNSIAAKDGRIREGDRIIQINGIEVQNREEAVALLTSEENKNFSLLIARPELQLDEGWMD

The target of test [18] is T12, TJP3_2, O95049.
T12 sequence (O95049 190-282, limits assumed, looked up): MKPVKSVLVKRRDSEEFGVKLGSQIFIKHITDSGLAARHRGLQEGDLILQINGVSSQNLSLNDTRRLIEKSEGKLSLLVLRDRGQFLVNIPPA

Test [19] addresses PTPN13_2, Q12923.
The target of test [20] is T13, NHERF1_2, O14745.
T13 sequence (O14745 149-244, limits assumed, looked up): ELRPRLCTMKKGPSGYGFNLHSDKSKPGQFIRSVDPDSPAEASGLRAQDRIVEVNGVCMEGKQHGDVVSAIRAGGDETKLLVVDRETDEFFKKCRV

Test [21] has as its target PARD3B_2, Q8TEW8.
Test [22] addresses SCRIB_4, Q14160.
The target of test [23] is T14, USH1C_3, Q9Y6N9.
T14 sequence (Q9Y6N9 447-547, limits assumed, looked up): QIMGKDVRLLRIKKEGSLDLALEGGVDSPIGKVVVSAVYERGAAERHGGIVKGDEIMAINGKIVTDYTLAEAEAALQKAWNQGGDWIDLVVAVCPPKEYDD

Setting [24] is: plain residues with an end cap or a label only (N-terminal biotin on a linker: ttds).
The mark [25] stands for this setting: plain residues with an end cap or a label only (N-terminal biotin on a linker: none).

Results on 4 molecules are retold here after article PMC9482650, “Quantitative fragmentomics allow affinity mapping of interactomes” (Nature Communications, 2022).

Sequence of PTPN13_2, Q12923 (Q12923 1363-1462): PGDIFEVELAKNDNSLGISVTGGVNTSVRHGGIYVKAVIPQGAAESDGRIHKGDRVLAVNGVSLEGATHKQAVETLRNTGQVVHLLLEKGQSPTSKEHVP
Sequence of PARD3B_2, Q8TEW8 (Q8TEW8 376-471): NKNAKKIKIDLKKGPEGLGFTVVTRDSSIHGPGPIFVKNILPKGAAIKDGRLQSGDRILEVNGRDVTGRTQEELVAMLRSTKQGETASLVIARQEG
Sequence of SCRIB_4, Q14160 (Q14160 1095-1204): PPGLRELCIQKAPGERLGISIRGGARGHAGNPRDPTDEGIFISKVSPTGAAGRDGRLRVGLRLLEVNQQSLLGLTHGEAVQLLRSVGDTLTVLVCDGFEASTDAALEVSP
Sequence of MAGIX, Q9H6Y5 (Q9H6Y5 118-211): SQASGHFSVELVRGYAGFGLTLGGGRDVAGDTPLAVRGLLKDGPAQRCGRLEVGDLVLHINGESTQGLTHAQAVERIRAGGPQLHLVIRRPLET

B1: DGKZ, Q13574 (peptide)
chain: IQREDQETAV
For B1, the negative-log Kd (pKd) (usually the negative decadic logarithm of the Kd, by convention in mol/L) in test [1] (setting [24]) is “below the threshold”; in test [2] (setting [24]), “below the threshold”; in test [3] (setting [24]), “below the threshold”; in test [4] (setting [24]) it was “below the threshold”; in test [5] (setting [24]), 5.16; in test [6] (setting [24]) it was “below the threshold”. Moreover, the pKd result in test [7] (setting [24]), in test [8] (setting [24]), in test [9] (setting [24]), in test [10] (setting [24]), in [11] (setting [24]) and in test [12] (setting [24]) was “below the threshold” in each case. The negative-log Kd (pKd) entry is “below the threshold” in test [13] (setting [24]); “below the threshold” in test [14] (setting [24]); 4.8 in [15] (setting [24]); 4.5 in [16] (setting [24]); “below the threshold” in [17] (setting [24]); “below the threshold” in [18] (setting [24]). Also, the negative-log Kd (pKd) result was “below the threshold” in test [19] (setting [24]); “below the threshold” in test [20] (setting [24]); “below the threshold” in test [21] (setting [24]); 4.4 in test [22] (setting [24]); “below the threshold” in test [23] (setting [24]).

B2: ASIC3, Q9UHC3 (peptide)
chain: HRTCYLVTQL
Regarding B2, the pKd result in [1] (setting [24]), in test [2] (setting [24]), in [3] (setting [24]), in [4] (setting [24]), in test [5] (setting [24]) and in [6] (setting [24]) was “below the threshold” each time. Further, the pKd entry in test [7] (setting [24]), in test [8] (setting [24]), in [9] (setting [24]), in [10] (setting [24]), in test [11] (setting [24]) and in test [12] (setting [24]) was “below the threshold” throughout. For the same molecule, the pKd in test [13] (setting [24]) is 4.13; in test [14] (setting [24]), “below the threshold”; in [15] (setting [24]), “below the threshold”; in test [16] (setting [24]), “below the threshold”; in test [17] (setting [24]), “below the threshold”; in [18] (setting [24]) it was “below the threshold”. The negative logarithm of the Kd (pKd) entry is “below the threshold” in test [19] (setting [24]); 4.35 in [20] (setting [24]); “below the threshold” in test [21] (setting [24]); “below the threshold” in test [22] (setting [24]); “below the threshold” in test [23] (setting [24]).

B3: DGKK, Q5KSL6 (peptide)
chain: DPLTPSRSQL
For B3, the pKd entry in test [1] (setting [24]), in test [2] (setting [24]), in test [3] (setting [24]), in test [4] (setting [24]), in test [5] (setting [24]) and in [6] (setting [24]) was “below the threshold” throughout. In addition, the negative logarithm of the Kd (pKd) result in [7] (setting [24]), in [8] (setting [24]), in test [9] (setting [24]), in test [10] (setting [24]), in test [11] (setting [24]) and in test [12] (setting [24]) was “below the threshold” in each case. The pKd result in test [13] (setting [24]) is “below the threshold”; in [14] (setting [24]), “below the threshold”; in [15] (setting [24]), “below the threshold”; in test [16] (setting [24]), 4.14; in [17] (setting [24]), 4.11; in [18] (setting [24]), “below the threshold”. The negative-log Kd (pKd) is 4.4 in test [19] (setting [24]); “below the threshold” in test [20] (setting [24]); “below the threshold” in test [21] (setting [24]); “below the threshold” in test [22] (setting [24]); “below the threshold” in test [23] (setting [24]).

B4: MERS-E, K9N5R3 (peptide)
chain: DSKPPLPPDEWV
On to B4, for which the pKd entry is “below the threshold” in [1] (setting [25]); “below the threshold” in [2] (setting [25]); 4.11 in test [3] (setting [25]); “below the threshold” in test [4] (setting [25]); “below the threshold” in test [5] (setting [25]); “below the threshold” in [6] (setting [25]). For the same molecule, the negative-log Kd (pKd) is 3.73 in [7] (setting [25]); “below the threshold” in test [8] (setting [25]); “below the threshold” in [9] (setting [25]); 3.73 in [10] (setting [25]); 3.83 in test [11] (setting [25]); “below the threshold” in [12] (setting [25]). Also, the pKd result in [13] (setting [25]), in test [14] (setting [25]), in test [15] (setting [25]), in test [16] (setting [25]), in test [17] (setting [25]) and in test [18] (setting [25]) was “below the threshold” each time. For the same molecule, the pKd in [19] (setting [25]) was 4.35; in [20] (setting [25]), “below the threshold”; in test [21] (setting [25]) it was “below the threshold”; in test [22] (setting [25]), 3.92; in test [23] (setting [25]) it was “below the threshold”.
